Laboratory results reported in publication doi:10.1101/2024.01.24.577129, “IgG hexamers initiate acute lung injury” (bioRxiv, 2024).

B1: 34-1-2S antibody (antibody, V domains shown)
VH: EVQLQQSGAEFVRPGASVKLSCTASGFNLKDDYMFWVKQRPEQGLEWIGWIAPDNGDTEYASKFQGKATITADTSSNTAYVQLSSLTSEDTAVYYCTTWGYYSYVNYWGQGTTLTVSS
VL: DIQMTQSPSSLSASLGERVSLTCRASQDIGSNLNWLQQEPDGTIKRLIYATYSLDSGVPKRFSGSRSGSDYSLTISSLESEDFVDYYCLQYASSPYTFGGGTKLEIK
notes: heavy chain variable region of 34-1-2S; mouse IgG2a heavy chain constant region; the class follows from the mIgG2a isotype control and the mIgG2a model; light chain variable region of 34-1-2S; light chain constant region of the mouse antibody; Mouse IgG2a monoclonal antibody; also called clone 34-1-2S; MHC class I alloantibody 34-1-2S; source: bought: BioXCell Cat# BE0180 (stated for the injury …)
B2: Kd1 (antibody, V domains shown)
VH: EVLLVESGGDLVKPGGSLKLSCAASGFTFRTYAMSWVRQTPEKRLEWVATIGDDGSYTFYPDNVKGRFTISRDNAKNNLYLQMRHLKSEDTAIYFCARDGLFAYWGQGTLVTVSA
VL: DIQMTQSPSSLSASLGGKVTITCKASQDIKKNIAWYQYKPGKGPRLLIHYTSTLQPGISSRFSGSGSGRDYSFSISNLEPEDIATYYCLQYDSLLYTFGGGTKLEIK

Experiments:
[1] = target: T1, K^b MHC class I monomer presenting SIINFEKL (Mus musculus, H-2b haplotype (K^b), UniProt P01901;P01887); assay: SPR; monoclonal antibody bound via amine coupling to SensEye G Easy2Spot sensors; serial dilutions (0.5-200 nM) of MHC class I monomers injected; triplicate; IBIS MX96 SPR imager; conditions: both partners purified
T1 construct: Commercial MHC class I monomer; also called H-2K^b; MBL International TB-5001-M; copies: + +

[2] = target: T2, D^b MHC class I monomer presenting … (Mus musculus, H-2b haplotype (D^b), UniProt P01899;P01887); assay: as above; conditions: both partners purified
T2 construct: Commercial MHC class I monomer; also called H-2D^b; MBL International TB-5008-M; copies: + +

[3] = target: T3, K^d MHC class I monomer presenting VYLKTNVFL (Mus musculus, H-2d haplotype (K^d), UniProt P01902;P01887)
T3 chain 1: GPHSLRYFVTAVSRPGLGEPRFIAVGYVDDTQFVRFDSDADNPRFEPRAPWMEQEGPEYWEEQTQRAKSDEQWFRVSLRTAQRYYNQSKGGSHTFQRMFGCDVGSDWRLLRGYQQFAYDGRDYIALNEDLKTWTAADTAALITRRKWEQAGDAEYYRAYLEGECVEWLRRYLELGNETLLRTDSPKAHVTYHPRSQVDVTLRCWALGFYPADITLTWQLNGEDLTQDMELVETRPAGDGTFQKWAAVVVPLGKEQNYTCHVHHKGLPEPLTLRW
T3 chain 2: not shown
T3 chain 3: VYLKTNVFL

Row | Binder | binding result [1] | binding result [2] | binding result [3]
1 | B1 | binds | no binding (tested: 0.5-200 nM) | –
2 | B2 | – | – | binds
